The results in this text go back to patent US20250282874A1.

The test concerns the target human PD-L1 expressed on cells (human) (UniProt Q9NZQ7). Kind of test: flow cytometry on 293T-PD-L1-CD3L cells, PE anti-human IgG, Mean PE-A; fit of a nearly flat control curve. On the technique in general: In flow cytometry, cells or beads pass a laser one at a time.

As usually defined, the EC50 is the concentration that produces a half-maximal response. For the substance Isotype control (antibody), the EC50 is 0.0292 µM. That is a double-digit nanomolar value.
